# Measurements: paper PMC2593004, “Evolutionary Diversification of Plant Shikimate Kinase Gene Duplicates” (PLoS Genetics, 2008)
# B1: AtSK2Δ55 (Arabidopsis thaliana) (protein)
# chain: LRSVSDKNSSALLETGSLLHSPFDEEQQILKKKAEEVKPYLNGRSMYLVGMMGSGKTTVGKIMARSLGYTFFDCDTLIEQAMKGTSVAEIFEHFGESVFREKETEALKKLSLMYHQVVVSTGGGAVIRPINWKYMHKGISIWLDVPLEALAHRIAAVGTGSRPLLHDDESGDTYTAALNRLSTIWDARGEAYTKASARVSLENITLKLGYRSVSDLTPAEIAIEAFEQVQSYLEKEDGMARPDGL
# notes: predicted N-terminal chloroplast transit peptide removed (55 residues truncated)
# B2: AtSK1Δ55 (Arabidopsis thaliana) (protein)
# chain: DQRRAVSPAVSCSDNNSSALLETGSVYPFDEDILKRKAEEVKPYLNGRSMYLVGMMGSGKTTVGKLMSKVLGYTFFDCDTLIEQAMNGTSVAEIFVHHGENFFRGKETDALKKLSSRYQVVVSTGGGAVIRPINWKYMHKGISIWLDVPLEALAHRIAAVGTDSRPLLHDESGDAYSVAFKRLSAIWDERGEAYTNANARVSLENIAAKRGYKNVSDLTPTEIAIEAFEQVLSFLEKEETMEIPDGDL
# notes: as for B1
# Legend:
# purified protein [1] = substrate: Nc1ncnc2c1ncn2[C@@H]1O[C@H](COP(=O)(O)OP(=O)(O)OP(=O)(O)O)[C@@H](O)[C@H]1O; assay: purified protein; assay type: biochemical, Arabidopsis thaliana; conditions: apparent Km, 2.5 mM shikimate fixed, 100 mM Tris-HCl pH 8.0, 25°C
# purified protein [2] = substrate: O=C(O)C1=C[C@@H](O)[C@@H](O)[C@H](O)C1; assay: purified protein; assay type: biochemical, Arabidopsis thaliana; conditions: apparent Km, 2.5 mM ATP fixed, 100 mM Tris-HCl pH 8.0, 25°C
Protein,Km (purified protein [1]) [µM],kcat (purified protein [1]) [s⁻¹],Km (purified protein [2]) [µM],kcat (purified protein [2]) [s⁻¹]
B1,246.7 ± 22.56,149 ± 5.04,422.15 ± 31.16,136 ± 4.97
B2,218.02 ± 12.27,162 ± 3.01,648.32 ± 23.45,148 ± 2.32
